Consider four substances from article PMC2770954.

The target in assay [1] is HIV-1 reverse transcriptase p66 subunit (wild type) (HIV-1) (UniProt P03366). As to the kind of experiment: intrinsic tryptophan fluorescence kinetics.
Assay [2] shares this target. In words: pre-steady-state activity assay.
Assay [3] addresses p66^S3C/C38V/C280S labeled with A488 (HIV-1). As to the kind of experiment: FRET or BRET.
For assay [4], the target named is HIV-1 reverse transcriptase p66 p66 (Human immunodeficiency virus 1) (UniProt O93215). To be noted: cited from earlier work.
In assay [5] the target is HIV-1 reverse transcriptase p51 p51 (Human immunodeficiency virus 1) (UniProt O93215). To be noted: cited from earlier work.
Assay [6] deals with p66^S3C/C38V/C280S labeled with QSY9 (HIV-1). As to the kind of experiment: FRET or BRET.

Values joined by “and” are separate entries in the source; they are usually repeats but may differ in a detail not shown here. Equal entries are not always repeated.

In assay [1], “HIV-1 reverse transcriptase p51 subunit (wild type) (from UniProt P03366 600-1039) (natural protein)” returned a kdiss(1), slower major component of the two-exponential fit of 3.6e-06 s⁻¹; a kdiss(2), faster minor component of the two-exponential fit of 7.6e-05 s⁻¹; a kobs (0.5 µM p66, 0.5 µM p51) of 5.4e-06 s⁻¹. In assay [2], this substance showed a kobs (0.5 µM p66, 0.5 µM p51) of 5.8e-06 s⁻¹ and a kobs (0.5 µM p66, 2.5 µM p51) of 7.8e-06 s⁻¹.
In assay [3], “p51^S3C/C38V/C280S labeled with QSY9 (natural protein)” yielded a kobs (0.5 µM p66-A488, 0.5 µM p51-QSY9) of 4.1e-06 s⁻¹; a kobs (0.5 µM p66-A488, 1.5 µM p51-QSY9) of 4.8e-06 s⁻¹; a kobs (0.5 µM p66-A488, 2.0 µM p51-QSY9) of 5.7e-06 s⁻¹; a kobs (0.5 µM p66-A488, 2.5 µM p51-QSY9) of 7.1e-06 s⁻¹. In assay [3], the koff was 2.5e-06 s⁻¹; the kon was 1.6 M⁻¹ s⁻¹ and 1.8 M⁻¹ s⁻¹.
With “HIV-1 reverse transcriptase p66 p66 (from UniProt O93215)”, the values for the Kd in assay [4] and in assay [5] were 4200 nM and 310 nM, respectively.
In assay [6], “p51^S3C/C38V/C280S labeled with A488 (natural protein)” came in with a kobs (0.5 µM p66-QSY9, 0.5 µM p51-A488) of 3.4e-06 s⁻¹ and a koff of 1.9e-06 s⁻¹.
